In one data set the target is T1, FLI1 DBD (259-399) (UniProt Q01543 259-399).
T1 sequence: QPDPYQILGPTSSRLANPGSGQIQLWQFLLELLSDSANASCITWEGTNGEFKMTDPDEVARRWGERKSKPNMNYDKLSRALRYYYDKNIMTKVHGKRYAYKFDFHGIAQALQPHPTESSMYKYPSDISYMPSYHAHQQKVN
Briefly: fluorescence anisotropy. In general terms: Fluorescence polarisation rises when a labelled molecule tumbles more slowly, as on binding a larger partner.

The data set “crystal structure” deals with the molecule itself. The data set is described as follows: crystal structure.
The target in data set [1] is T2, 15N-labeled FLI1 DBD (NMR) (UniProt Q01543 259-399).
T2 sequence: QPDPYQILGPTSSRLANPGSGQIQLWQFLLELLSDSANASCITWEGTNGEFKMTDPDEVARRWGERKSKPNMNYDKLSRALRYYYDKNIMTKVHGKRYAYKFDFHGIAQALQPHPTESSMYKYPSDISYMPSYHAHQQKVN
Briefly: NMR.

The target in another data set is T3, FLI1 DBD (276-375) (UniProt Q01543 276-375).
T3 sequence: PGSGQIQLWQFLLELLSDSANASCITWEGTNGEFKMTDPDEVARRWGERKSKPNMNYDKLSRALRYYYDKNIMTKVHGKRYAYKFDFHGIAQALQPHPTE
Briefly: X-ray crystallography.

B1: AA(GGAA)6 (dsDNA)
DNA 1: AAGGAAGGAAGGAAGGAAGGAAGGAA
DNA 2: TTCCTTCCTTCCTTCCTTCCTTCCTT
For the molecule B1, the binding result in the data set with FLI1 DBD (259-399) was “binds”.

B2: DNA binding domain of FLI1 (residues 276-375) (domain or fragment)
chain: PGSGQIQLWQFLLELLSDSANASCITWEGTNGEFKMTDPDEVARRWGERKSKPNMNYDKLSRALRYYYDKNIMTKVHGKRYAYKFDFHGIAQALQPHPTE
As to B2, the binding result in the data set “crystal structure” is “binds”.

B3: 12-mer TTGAAGGAAGAG (dsDNA)
DNA 1: TTGAAGGAAGAG
DNA 2: CTCTTCCTTCAA
As for B3, in data set [1], the binding result is “binds”.

B4: 11-mer GACCGGAAGTG (dsDNA)
DNA 1: GACCGGAAGTG
DNA 2: CACTTCCGGTC
Turning to B4, the binding result with FLI1 DBD (276-375) is recorded as “binds”.

The values are drawn from article PMC5063001 (Nucleic Acids Research, 2016).
